Test results taken from US20260184814A1, “BROADLY NE[…] INFLUENZA NEURAMINIDASE” (priority 2022, published 2026).

Columns and labels:
[1] = target: N2 neuraminidase from H3N2 A/Tanzania/205/2010 (Influenza A virus A/Tanzania/205/2010 (H3N2))
[2] = target: B/Perth/211/2011 (Influenza B virus); assay: SPR (Biacore), NA on anti-Avi chip, 1:1 model; NA code BNA-2
[3] = target: B/Massachusetts/02/2012(Yamagata) (Influenza B virus); assay: SPR (Biacore), NA on anti-Avi chip, 1:1 model; NA code BNA-3
[4] = target: N2 A/Hong_Kong/2671/2019 (82-469) (Influenza A virus); assay: SPR (Biacore), NA on anti-Avi chip, 1:1 model; NA code NA-18 (+glyc245)
[5] = target: N9 Hong Kong/56/2015 (Influenza A virus); assay: SPR (Biacore), NA on anti-Avi chip, 1:1 model; NA code N9
[6] = target: B/Brisbane/602008 or 33/2008 (Victoria) (Influenza B virus); assay: SPR (Biacore), NA on anti-Avi chip, 1:1 model; NA code BNA-6
[7] = target: N2 A/Switzerland/8060/2017 (82-469) (Influenza A virus); assay: SPR (Biacore), NA on anti-Avi chip, 1:1 model; NA code NA-16 (+glyc245)
[8] = target: A/N1 Vietnam/1203/2004 (Influenza A virus); assay: SPR (Biacore), NA on anti-Avi chip, 1:1 model; NA code NA-3
[9] = target: N2 neuraminidase from A/South Australia/34/2019 (Influenza A virus A/South Australia/34/2019); assay: SPR (Biacore), NA on anti-Avi chip, 1:1 model; NA code NA-17, 82-469 (+glyc245)
[10] = target: IBV neuraminidase from B/Malaysia/2506/2004 (Victoria) (Influenza B virus B/Malaysia/2506/2004); assay: SPR (Biacore), NA on anti-Avi chip, 1:1 model; NA code BNA-7
[11] = target: N2 neuraminidase from H3N2 A/Tanzania/205/2010 (Influenza A virus A/Tanzania/205/2010 (H3N2)); assay: SPR; NA-5; parameters: unit not given beside the values
[12] = target: N2 A/Hong_Kong/2671/2019 (82-469) (Influenza A virus); assay: SPR; NA-18; parameters: unit not given beside the values
[13] = target: N2 A/Hong_Kong/2671/2019 (82-469) (Influenza A virus); assay: SPR, 1:1 binding; NA-18 "+glyc245"
[14] = target: N2 neuraminidase from H3N2 A/Tanzania/205/2010 (Influenza A virus A/Tanzania/205/2010 (H3N2)); assay: SPR, 1:1 binding; NA-5 "-glyc245"
[15] = target: N2 neuraminidase from A/South Australia/34/2019 (Influenza A virus A/South Australia/34/2019); assay: SPR, 1:1 binding; NA-17 "+glyc245"
[16] = target: N2 neuraminidase from A/South Australia/34/2019 (Influenza A virus A/South Australia/34/2019); assay: SPR; NA-17; parameters: unit not given beside the values
N9 NA (FIGS. 96A-96C) [17] = assay: Bio-Layer Interferometry (BLI)
N9 NA (FIGS. 96A-96C) [18] = assay: Bio-Layer Interferometry (BLI); printed as kdis
N9 NA (FIGS. 96A-96C) [19] = assay: Bio-Layer Interferometry (BLI); printed as ka

| Binder | fold-change in affinity compared to FNI9-v1.1 [1] | fold-change in affinity compared to FNI9-v1.1 [2] | fold-change in affinity compared to FNI9-v1.1 [3] | fold-change in affinity compared to FNI9-v1.1 [4] | fold-change in affinity compared to FNI9-v1.1 [5] | fold-change in affinity compared to FNI9-v1.1 [6] | fold-change in affinity compared to FNI9-v1.1 [7] | fold-change in affinity compared to FNI9-v1.1 [8] | fold-change in affinity compared to FNI9-v1.1 [9] | fold-change in affinity compared to FNI9-v1.1 [10] | KD compared to v1.1 [11] | KD compared to v1.1 [12] | Kd [13] [nM] | Kd [14] [nM] | Kd [15] [nM] | KD compared to v1.1 [16] | Kd (N9 NA (FIGS. 96A-96C) [17]) [nM] | koff (N9 NA (FIGS. 96A-96C) [18]) [s⁻¹] | kon (N9 NA (FIGS. 96A-96C) [19]) [M⁻¹ s⁻¹] |
| --- | --- | --- | --- | --- | --- | --- | --- | --- | --- | --- | --- | --- | --- | --- | --- | --- | --- | --- | --- |
| FNI9-v4.1 (antibody, V domains shown) VH: QVHLVQSGAEVKEPGSSVTVSCKASGGSFSNQAISWVRQAPGQGLEWMGGIFPISGTPTSAQRFQGRVTFTADESTTTVYMDLSSLRSDDTAVYYCARAGSDYFNRDLGWENYYFASWGQGTLVTVSS VL: EIVMTQSPATLSLSSGERATLSCRASRSVSSNLAWYQQKPGQAPRLLIYDASTRATGFSARFAGSGSGTEFTLTISSLQSEDSAIYYCQQYNNWPPWTFGQGTKVEIK | 1.76 | 1.48 | 1.24 | 1.85 | 1.31 | 0.78 | 1.06 | 1.06 | 1.3 | 1.44 | – | – | – | – | – | – | – | – | – |
| Fab FNI9-v8.1 (Fab, V domains shown) VH: QVHLVQSGAEVKEPGSSVTVSCKASGGTFNNQAISWVRQAPGQGLEWMGGIFPISGTPTSAQRFQGRVTFTADESTTTVYMDLSSLRSDDTAVYYCARAGSDYFNRDLGWENYYFASWGQGTLVTVSS VL: EIVMTQSPATLSLSSGERATLSCRASRSVSSNLAWYQQKPGQAPRLLIYDASTRATGFSARFAGSGSGTEFTLTISSLQSEDSAIYYCQQYNNWPPWTFGQGTKVEIK | – | – | – | – | – | – | – | – | – | – | 0.78 | 0.83 | 8.64 | 2.57 | 99.5 | 0.78 | – | – | – |
| FNI9-v9.1 (antibody, V domains shown) VH: QVHLVQSGAEVKEPGSSVTVSCKASGGSFNNQAISWVRQAPGQGLEWMGGIFPISGTATSAQRFQGRVTITADESTTTVYMDLSSLRSDDTAVYYCARAGSDYFNRDLGWENYYFASWGQGTLVTVSS VL: EIVMTQSPATLSLSSGERATLSCRASRSVSSNLAWYQQKPGQAPRLLIYDASTRATGFSARFAGSGSGTEFTLTISSLQSEDSAIYYCQQYNNWPPWTFGQGTKVEIK | 0.81 | 1.59 | 0.92 | 1.15 | 8.43 | 0.81 | 0.93 | 0.93 | 2.99 | 1.53 | – | – | – | – | – | – | 0.19 | 8.66e-05 | 456000 |
| FNI9-v8.1 (antibody, V domains shown) VH: QVHLVQSGAEVKEPGSSVTVSCKASGGTFNNQAISWVRQAPGQGLEWMGGIFPISGTPTSAQRFQGRVTFTADESTTTVYMDLSSLRSDDTAVYYCARAGSDYFNRDLGWENYYFASWGQGTLVTVSS VL: EIVMTQSPATLSLSSGERATLSCRASRSVSSNLAWYQQKPGQAPRLLIYDASTRATGFSARFAGSGSGTEFTLTISSLQSEDSAIYYCQQYNNWPPWTFGQGTKVEIK | 0.98 | 1.03 | 1.17 | 0.4 | 1.1 | 0.92 | 0.98 | 1.98 | 1.2 | 1.35 | – | – | – | – | – | – | < 0.001 | < 1e-07 | 463000 |
| Fab FNI9-v4.1 (Fab, V domains shown) VH: QVHLVQSGAEVKEPGSSVTVSCKASGGSFSNQAISWVRQAPGQGLEWMGGIFPISGTPTSAQRFQGRVTFTADESTTTVYMDLSSLRSDDTAVYYCARAGSDYFNRDLGWENYYFASWGQGTLVTVSS VL: EIVMTQSPATLSLSSGERATLSCRASRSVSSNLAWYQQKPGQAPRLLIYDASTRATGFSARFAGSGSGTEFTLTISSLQSEDSAIYYCQQYNNWPPWTFGQGTKVEIK | – | – | – | – | – | – | – | – | – | – | 1.63 | 1.91 | 19.9 | 5.35 | 133 | 1.04 | – | – | – |
